Experimental data reported in patent US6689878B2, “Target of RNAIII activating protein (TRAP)” (The Regents of the University of California, priority 1998, dated 2004).

Experiment: Sensitivity of TRAP phosphorylation to acidic and basic conditions
Format: physicochemical, Staphylococcus aureus
Text: Two-component systems act through phosphorylation of the substrate domain of the sensor protein and subsequent transfer of the phosphate to an aspartate residue in the regulator protein. The initial phosphorylation is catalyzed by a protein histidine kinase domain in the sensor protein and results in an N-phosphorylated histidine residue, which is stable in alkaline conditions but not in acidic conditions (Wei et al. Methods Enymol. 200:388-414 (1991)). To test whether TRAP may be histidine-phosphorylated and therefore a candidate sensor to RAP, phosphorylated TRAP was tested for sensitivity to acidic and basic conditions. Phosphorylated TRAP was incubated at pH ranging from 3-10, for 10 min at room temperature. The mixture was then applied to SDS PAGE and the gel autoradiographed.

B1: Phosphorylated TRAP: approximately 21 kDa S. aureus protein target of RAP, SEQ ID NO:2, phosphorylated by RAP (protein)
chain: MKKLYTSYGTYGFLHQIKINNPTHQLFQFSASDTSVIFEETDGETVLKSPSIYEVIKEIGEFSEHHFYCAIFIPSTEDHAYQLEKKLISVDDNFRNFGGFKSYRLLRPAKGTTYKIYFGFADRHAYEDFKQSDAFNDHFSKDALSHYFGSSGQHSSYFERYLYPIKE
modifications: phosphorylated
Stability of TRAP phosphorylation in lower pHs (lower pHs (range tested pH 3-10), 10 min at room temperature): labile
Stability of TRAP phosphorylation at pH 8-10 (pH 8-10, 10 min at room temperature): stable
